Consider two molecules from US9932382B2, “Kv2.1 channel-derived peptides and methods of use” (University of Pittsburgh—Of the Commonwealth System of …, priority 2014, dated 2018).

The test system of one data set is Kv2.1 K^+ currents. Nature of the data set: Whole-cell patch clamp K+ currents in cortical neurons after DTDP. The data set is classed as cell-based, rat. As for the experimental part: For electrophysiological experiments, mixed cortical neuronal/glial cultures were prepared from embryonic day 16 (E16) Sprague-Dawley rats (Charles River Laboratories, Wilmington, Mass., USA). Donor rats were euthanized by gradual CO2 exposure. Cortices were dissociated with trypsin, and the resultant cell suspension, adjusted to 670,000 cells per well, was plated on glass coverslips in 6-well plates as described previously (Hartnett et al., J Neurochem 68, 1836-1845, 1997). Non-neuronal cell proliferation was inhibited after two weeks in culture with 1-2 μM cytosine arabinoside, and cultures utilized at three to four weeks in vitro. For neuronal transfection, cells were treated for five hours in serum-free medium with 2 μL LIPOFECTAMINE™ 2000 (Invitrogen, Carlsbad, Calif.), 50 μL Optimem (GIBCO, Grand Island, N.Y.), and 1.5 μg DNA per well. […]
Current recordings were performed on eGFP-positive co-transfected neurons or CHO cells using the whole-cell patch clamp configuration technique as described previously (McLaughlin et al., J Neurosci 21, 3303-3311, 2001). […] To determine current density values, steady-state current amplitudes were measured 180 msec after the initiation of the +10 mV step and normalized to cell capacitance. […]
In general terms: The patch-clamp technique gives a direct electrical read-out from membranes.

A further data set has as its system neurons. Nature of the data set: Current clamp / dynamic clamp electrical properties of neurons. The data set is classed as cell-based. The protocol: For electrophysiological experiments, mixed cortical neuronal/glial cultures were prepared from embryonic day 16 (E16) Sprague-Dawley rats (Charles River Laboratories, Wilmington, Mass., USA). Donor rats were euthanized by gradual CO2 exposure. Cortices were dissociated with trypsin, and the resultant cell suspension, adjusted to 670,000 cells per well, was plated on glass coverslips in 6-well plates as described previously (Hartnett et al., J Neurochem 68, 1836-1845, 1997). Non-neuronal cell proliferation was inhibited after two weeks in culture with 1-2 μM cytosine arabinoside, and cultures utilized at three to four weeks in vitro. For neuronal transfection, cells were treated for five hours in serum-free medium with 2 μL LIPOFECTAMINE™ 2000 (Invitrogen, Carlsbad, Calif.), 50 μL Optimem (GIBCO, Grand Island, N.Y.), and 1.5 μg DNA per well. For CHO cell transfections, cells were plated on coverslips in 24-well plates at a density of 5.6×10^4 cells per well for electrophysiological measurements or in 100 mm dishes at a density of 1.7×10^6 cells per dish for biochemical studies. Cells were treated for 3-4 hours in serum-free medium with a total of 1.2 μL LIPOFECTAMINE™ and 0.28 μg DNA per well for electrophysiology, or 55.1 μL LIPOFECTAMINE™ and 7.33 μg DNA per dish for biochemistry. Following transfection, cells were maintained in F12 medium containing fetal bovine serum at 37° C., 5% CO2 for 24 hours prior to experimentation.
Current recordings were performed on eGFP-positive co-transfected neurons or CHO cells using the whole-cell patch clamp configuration technique as described previously (McLaughlin et al., J Neurosci 21, 3303-3311, 2001). The intracellular (electrode) solution contained (in mM): 100 K-gluconate, 11 EGTA, 10 KCl, 1 MgCl2, 1 CaCl2×2H2O, 10 HEPES; pH adjusted to 7.2 with concentrated KOH; 2.2 ATP and 0.33 GTP were added and the osmolarity was adjusted to 280 mOsm with sucrose. The extracellular solution contained (in mM): 115 NaCl, 2.5 KCl, 2.0 MgCl2, 10 HEPES, 10 D-glucose; 0.25 μM tetrodotoxin; pH adjusted to 7.2. Measurements were obtained under whole-cell voltage clamp with an Axopatch-1D amplifier and pClamp software (Molecular Devices, Sunnyvale, Calif.), using 2-3 MΩ recording electrodes. Electrodes were pulled from 1.5 mm borosilicate glass (Warner Instruments, Hamden, Conn.) with a model P-97 mechanical pipette puller (Sutter Instruments, Novato, Calif.). Series resistance was partially compensated (80%) in all cases. Currents were filtered at 2 kHz and digitized at 10 kHz with a Digidata 1440A Digitizer (Molecular Devices). K^+ currents were evoked with incremental 10 mV voltage steps to +80 mV from a holding potential of −80 mV. To determine current density values, steady-state current amplitudes were measured 180 msec after the initiation of the +10 mV step and normalized to cell capacitance. For current clamp experiments, the intracellular (electrode) solution contained (in mM): 94 K-gluconate, 30 KCl, 10 phosphocreatine di-tris salt, 10 HEPES, 0.2 EGTA, 4 ATP, 0.3 GTP; pH adjusted to 7.3 with concentrated KOH. […] By repeatedly adjusting the scaling factor k, an automated binary search algorithm determined threshold synaptic conductance (thresh-gsyn), the conductance required to reach firing threshold (Kullmann et al., J Neurophysiol 91, 542-54, 2004).
It was next evaluated whether C1a441-522 was sufficient to protect neurons against oxidative injury. […]

B1: C1a: rat Kv2.1 C1a peptide, residues 411-522 of SEQ ID NO: 3, expressed from a plasmid (protein, listed as Rattus norvegicus)
chain: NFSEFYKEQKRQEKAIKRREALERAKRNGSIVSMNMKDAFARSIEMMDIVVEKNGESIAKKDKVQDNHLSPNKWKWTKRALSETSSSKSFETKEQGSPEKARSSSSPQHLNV
Turning to B1, the “effect on DTDP-induced enhancement of K+ current densities” value in the data set on Kv2.1 K^+ currents (cortical neurons transfected with C1a-expressing plasmid, 30 μM DTDP 10 min, +10 mV step) is listed as “failed to exhibit the enhanced K^+ current densities normally elicited by DTDP”. In the data set with Kv2.1 K^+ currents (cortical neurons, without DTDP), the “effect on non-apoptotic, basal delayed-rectifier K+ currents” value is listed as “had no effect”.

B2: C1a441-522: distal segment of C1a, residues 441-522 of rat Kv2.1 (protein, UniProt P15387 441-522, looked up, fragment)
chain: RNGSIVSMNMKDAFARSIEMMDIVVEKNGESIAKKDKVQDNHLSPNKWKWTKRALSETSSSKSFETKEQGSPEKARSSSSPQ
B2: the “overall effect of expression on neurons” value in the data set with neurons is on record as “relatively innocuous to neurons”. In addition, the “firing frequency as a function of depolarizing current versus vector-expressing neurons” value with neurons (1 sec depolarizing current steps, 15-120 pA) is reported as “small but significant increase”. For the same molecule, in the data set with neurons (current clamp), the “input resistance versus vector-expressing neurons” value is given as “no differences” and the “resting membrane potential versus vector-expressing neurons” value is “no differences”. Further, in the data set with neurons (dynamic clamp), the “threshold synaptic conductance versus vector-expressing neurons” value is “no differences”.
